From the RNAGym collection of RNA variant scans (doi:10.7554/elife.80360)

B1: Hairpin Ribozyme (parent)
chain: GUCCUCUUUCACGUGCGCGUGAAAGAGAGAAGUGAACCAGAGAAACACACGUUGUGGUAUAUUACCUGGUA

Variants of: B1
Assay: self-cleavage, relative activity (ratio to wild type); higher = more cleavage; co-transcriptional

Variant	self-cleavage
GUCCUCUUUAACGUGCGCGUGAAAGAGAGAAGUGAACCAGAGAAACACACGUUGUGGUAUAUUACCUGGUA [C10A]	0.722
GUCCUCUUUAACGUGCGCGUGAAAGAGAGAAGUGAACCAGAGAAACACACGUUGUGGUAUAUUACCUGGUG [C10A A71G]	0.915
GUCCUCUUUAACGUGCGCGUGAAAGAGAGAAGUGAACCAGAGAAACACACGUUGUGGUAUAUUACCUGGUC [C10A A71C]	1.16
GUCCUCUUGCACGUGCGCGUGAAAGAGAGAAGUGAACCAGAGAAACACACGUUGUGGUAUACUACCUGGUA [U9G U62C]	0.323
GUCCUCUUUAACGUGCGCGUGAAAGAGAGAAGUGAACCAGAGAAACACACGUUGUGGGAUAUUACCUGGUA [C10A U58G]	0.592
GUCCUCUUGCACGUGCGCGUGAAAGAGAGAAGUGAACCAGAGAAACACACCUUGUGGUAUAUUACCUGGUA [U9G G51C]	0.614
GUCCUCUUUAACGUGCGCGCGAAAGAGAGAAGUGAACCAGAGAAACACACGUUGUGGUAUAUUACCUGGUA [C10A U20C]	0.732
GUCCUCUUUAACGUGCGCGUGAAAGAGAGAAGUGAACCAGAGAAACACAUGUUGUGGUAUAUUACCUGGUA [C10A C50U]	0.349
GUCCUCUUUAACGUGCGCGUGAAAGAGAGAAGUGAACCAGAGCAACACACGUUGUGGUAUAUUACCUGGUA [C10A A43C]	0.0904
GUCCUCUUUAACGUGCGCGUGAAAGAGAGAAGUGAACCAGAGGAACACACGUUGUGGUAUAUUACCUGGUA [C10A A43G]	0.132
GUCCUCUUUAACGUGCGCGUGAAAGAGAGAAGUGAACCAGAGAAACACACGUUGUGGUAUAUUACCUGUUA [C10A G69U]	0.14
GUCCUCUUUAACGUGCGCGUGAAAGAGAGAAGUGAACCAGAGAAACACACGUUGUGGUAUAUUAACUGGUA [C10A C65A]	0.556
GUCCUCUUUAACGUGCGCGUGAAAGAGAGAAGUGAACCAGAGAAACACACGUUGUGGUAUAUUAGCUGGUA [C10A C65G]	0.388
GUCCUCUUGCACGUGCGCGUGAAAGAGAGAAGUGAACCAGAGAAACACACGUUGUAGUAUAUUACCUGGUA [U9G G56A]	0.18
GUCCUCUUGCACGUGCGCGUGAAAGAGAGAAGUGAACCAGAGAAACACACGUUGUCGUAUAUUACCUGGUA [U9G G56C]	0.0826
GUCCUCUUUAACGUGCGCGUGAAAGGGAGAAGUGAACCAGAGAAACACACGUUGUGGUAUAUUACCUGGUA [C10A A26G]	0.663
GUCCUCUUUAACGUGGGCGUGAAAGAGAGAAGUGAACCAGAGAAACACACGUUGUGGUAUAUUACCUGGUA [C10A C16G]	0.527
GUCCUCUUUAACGUGAGCGUGAAAGAGAGAAGUGAACCAGAGAAACACACGUUGUGGUAUAUUACCUGGUA [C10A C16A]	0.907
GUCCUCUUGCACGUGCGCGUGAAAGAGAGAAGUGAACCAGAGAAACACACGUUCUGGUAUAUUACCUGGUA [U9G G54C]	0.341

Variant	self-cleavage
GUCCUCUUGCACGUGCGCGUGAAAGAGAGAAGUGAACCAGAGAAACACACGUUUUGGUAUAUUACCUGGUA [U9G G54U]	0.52
GUCCUCUUUAACGUGCGCGUGAAAGAGAGAAGUGAACCAGAGAAACACUCGUUGUGGUAUAUUACCUGGUA [C10A A49U]	0.172
GUCCUCUUUAACGUGCGCGUGAAAGAGAGAUGUGAACCAGAGAAACACACGUUGUGGUAUAUUACCUGGUA [C10A A31U]	0.112
GUCCUCUUUAACGUGCGCGUGAAAGAGAGAGGUGAACCAGAGAAACACACGUUGUGGUAUAUUACCUGGUA [C10A A31G]	0.533
GUCCUCUUUAACGUGCGCGUGAAAGAGAGAAGUGAACCAGAGAAACACACGUUGUGGUAUAUUCCCUGGUA [C10A A64C]	0.185
GUCCUCUUGCACGUGCGCGUGAAAGAGAGAAGUGAACCAGAGAAACACACGUUGUGGUAUAUUACCUGGCA [U9G U70C]	0.72
GUCCUCUUGCACGUGCGCGUGAAAGAGAGAAGUGAACCAGAGAAACACACGUUGUGGUAUAUUACCUGGAA [U9G U70A]	0.812
GUCCUCUUUAACGCGCGCGUGAAAGAGAGAAGUGAACCAGAGAAACACACGUUGUGGUAUAUUACCUGGUA [C10A U14C]	0.888
GUCCUCUUUAACGUGCGCGUGAAAGAGAGAAGUGAAACAGAGAAACACACGUUGUGGUAUAUUACCUGGUA [C10A C37A]	0.271
GUCCUCUUUAACGUGCGCGUGAAAGAGAGAAGUGAACCAGAGAAACACACUUUGUGGUAUAUUACCUGGUA [C10A G51U]	0.678
GUCCUCUUUAACGUGCGCGUGAAAGAGAGAAGGGAACCAGAGAAACACACGUUGUGGUAUAUUACCUGGUA [C10A U33G]	0.114
GUCCUCUUGCACGUGCGCGCGAAAGAGAGAAGUGAACCAGAGAAACACACGUUGUGGUAUAUUACCUGGUA [U9G U20C]	0.682
GUCCUCUUGCACGUGCGCGAGAAAGAGAGAAGUGAACCAGAGAAACACACGUUGUGGUAUAUUACCUGGUA [U9G U20A]	0.531
GUCCUCUUUAACGUGCGCCUGAAAGAGAGAAGUGAACCAGAGAAACACACGUUGUGGUAUAUUACCUGGUA [C10A G19C]	0.509
GUCCUCUUUAACGUGCGCAUGAAAGAGAGAAGUGAACCAGAGAAACACACGUUGUGGUAUAUUACCUGGUA [C10A G19A]	0.761
GUCCUCUUUAACGUGCGCGUGAAAGAGAGAAAUGAACCAGAGAAACACACGUUGUGGUAUAUUACCUGGUA [C10A G32A]	0.161
GUCCUCUUGCACGUGCGCGUGAAAGAGAGAAGUGAACCAGAGAAACACACGUUGUGUUAUAUUACCUGGUA [U9G G57U]	0.379
GUCCUCUUGCACGUGCGCGUGAAAGAGAGAAGUGAACCAGACAAACACACGUUGUGGUAUAUUACCUGGUA [U9G G42C]	0.239
GUCCUCUUUAACGUGCCCGUGAAAGAGAGAAGUGAACCAGAGAAACACACGUUGUGGUAUAUUACCUGGUA [C10A G17C]	0.489
